Laboratory results taken from patent US20260028402A1 (published 2026).
Like-named read-outs stand apart in the source and are kept apart here.

Experiments:
[1] = target: T1, HuCD100-Fc (in-house prepared) (human, UniProt Q92854 22-734, biotinylated in the Plexin binding and blocking assays (sites not given)); assay: FACS blocking; HuPlexin-B1-HEK293, FIG. 12A
CynoCD100-His [2] = target: CynoCD100-His (cynomolgus monkey); assay: ELISA; FIG. 5C
CynoCD100-HEK293 [3] = target: CynoCD100-HEK293 (cynomolgus monkey); assay: FACS
MusCD100-Fc [4] = target: T2, MusCD100-Fc (mouse, UniProt O09126 24-733, biotinylated in the Plexin binding and blocking assays (sites not given)); assay: FACS blocking; MusPlexin-B1-HEK293, FIG. 12F
T2 chain: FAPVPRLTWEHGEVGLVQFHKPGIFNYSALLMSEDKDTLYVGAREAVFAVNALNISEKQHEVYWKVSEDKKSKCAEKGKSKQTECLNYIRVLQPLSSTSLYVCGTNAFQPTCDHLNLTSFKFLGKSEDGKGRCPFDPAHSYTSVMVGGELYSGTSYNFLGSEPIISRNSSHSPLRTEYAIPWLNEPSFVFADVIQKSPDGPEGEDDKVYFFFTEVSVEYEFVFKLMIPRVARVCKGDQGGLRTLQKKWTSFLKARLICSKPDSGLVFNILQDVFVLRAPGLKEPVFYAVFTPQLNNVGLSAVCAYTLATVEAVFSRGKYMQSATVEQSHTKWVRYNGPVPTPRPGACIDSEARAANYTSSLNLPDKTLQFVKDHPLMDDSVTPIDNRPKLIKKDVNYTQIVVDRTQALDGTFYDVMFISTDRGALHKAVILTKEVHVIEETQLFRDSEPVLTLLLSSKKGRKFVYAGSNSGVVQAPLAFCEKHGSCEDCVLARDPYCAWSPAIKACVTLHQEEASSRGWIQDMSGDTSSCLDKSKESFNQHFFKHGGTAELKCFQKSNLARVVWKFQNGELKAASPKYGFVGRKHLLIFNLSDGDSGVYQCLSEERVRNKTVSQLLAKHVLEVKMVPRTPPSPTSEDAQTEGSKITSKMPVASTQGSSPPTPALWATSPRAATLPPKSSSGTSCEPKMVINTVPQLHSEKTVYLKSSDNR

[5] = target: T1, HuCD100-Fc (in-house prepared); assay: FACS blocking; HuPlexin-B2-HEK293, FIG. 12D
[6] = target: T1, HuCD100-Fc (in-house prepared); assay: FACS blocking; HuPlexin-B2-HEK293, FIG. 12C
CynoCD100-HEK293 [7] = target: CynoCD100-HEK293 (cynomolgus monkey); assay: FACS; remark: listed apart in the source
HuCD100-His [8] = target: T3, HuCD100-His (human, UniProt Q92854 22-734); assay: ELISA
MusCD100-Fc [9] = target: T2, MusCD100-Fc; assay: ELISA
MusCD100-His [10] = target: T4, MusCD100-His (mouse, UniProt O09126 24-733); assay: ELISA
T4 chain: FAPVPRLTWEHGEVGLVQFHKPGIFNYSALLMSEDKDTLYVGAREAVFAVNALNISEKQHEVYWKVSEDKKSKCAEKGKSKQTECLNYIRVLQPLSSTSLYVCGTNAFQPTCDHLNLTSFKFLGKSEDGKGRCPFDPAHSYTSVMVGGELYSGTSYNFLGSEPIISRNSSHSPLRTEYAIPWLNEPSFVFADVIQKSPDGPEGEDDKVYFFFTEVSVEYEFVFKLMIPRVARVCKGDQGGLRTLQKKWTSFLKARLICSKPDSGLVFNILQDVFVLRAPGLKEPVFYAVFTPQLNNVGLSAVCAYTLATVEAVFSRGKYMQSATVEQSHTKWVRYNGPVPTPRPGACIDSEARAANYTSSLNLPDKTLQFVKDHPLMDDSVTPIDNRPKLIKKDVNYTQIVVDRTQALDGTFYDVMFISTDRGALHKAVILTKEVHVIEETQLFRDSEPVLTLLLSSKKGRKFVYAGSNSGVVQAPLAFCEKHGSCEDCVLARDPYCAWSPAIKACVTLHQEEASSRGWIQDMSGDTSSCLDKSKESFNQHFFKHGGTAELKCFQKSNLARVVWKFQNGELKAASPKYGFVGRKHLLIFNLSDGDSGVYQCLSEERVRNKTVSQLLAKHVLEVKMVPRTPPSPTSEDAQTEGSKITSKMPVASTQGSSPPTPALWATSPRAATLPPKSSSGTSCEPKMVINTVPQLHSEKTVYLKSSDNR

MusCD100-His [11] = target: T4, MusCD100-His; assay: ELISA; FIG. 5B
MusCD100-Fc [12] = target: T2, MusCD100-Fc; assay: FACS blocking; MusPlexin-B1-HEK293, FIG. 12E
HuCD100-His [13] = target: T3, HuCD100-His; assay: ELISA; remark: listed apart in the source
MusCD100-His [14] = target: T4, MusCD100-His; assay: ELISA
HuCD100-His [15] = target: T3, HuCD100-His; assay: ELISA; FIG. 5D
CynoCD100-His [16] = target: CynoCD100-His (cynomolgus monkey); assay: ELISA; FIG. 5F
[17] = target: T1, HuCD100-Fc (in-house prepared); assay: ELISA; first HuCD100-Fc row
[18] = target: full-length human CD100 protein HuCD100 on cells (human, UniProt Q92854 22-862); assay: FACS; HuPBMC cells
[19] = target: T1, HuCD100-Fc (in-house prepared); assay: FACS blocking; FIG. 8B, blocking of binding to HuPlexin-B2-HEK293
[20] = target: T1, HuCD100-Fc (in-house prepared); assay: FACS blocking; HuPlexin-B1-HEK293, FIG. 12B

IC50 [1]: 0.896 nM
EC50 (CynoCD100-His [2]): 0.117 nM
EC50 (CynoCD100-HEK293 [3]): 0.271 nM
IC50 (MusCD100-Fc [4]): 5.44 nM
IC50 [5]: 2.06 nM
IC50 [6]: 1.45 nM
EC50 (CynoCD100-HEK293 [7]): 0.132 nM
EC50 (HuCD100-His [8]): 0.0804 µg/mL
EC50 (MusCD100-Fc [9]): 0.136 µg/mL
EC50 (MusCD100-His [10]): 0.174 µg/mL
EC50 (MusCD100-His [11]): 0.205 nM
IC50 (MusCD100-Fc [12]): 4.08 nM
EC50 (HuCD100-His [13]): 0.122 nM
EC50 (MusCD100-His [14]): 0.0908 nM
EC50 (HuCD100-His [15]): 0.0376 nM
EC50 (CynoCD100-His [16]): 0.0993 nM
EC50 [17]: 0.0469 µg/mL
EC50 [18]: 0.479 nM
IC50 [19]: 0.766 nM
IC50 [20]: 1.31 nM
B1: Pepinemab (antibody, V domains shown)
VH: QVQLVQSGAEVKKPGSSVKVSCKASGYSFSDYYMHWVRQAPGQGLEWMGQINPTTGGASYNQKFKGKATITVDKSTSTAYMELSSLRSEDTAVYYCARYYYGRHFDVWGQGTTVTVSS
VL: DIVMTQSPDSLAVSLGERATINCKASQSVDYDGDSYMNWYQQKPGQPPKLLIYAASNLESGVPDRFSGSGSGTDFTLTISSLQAEDVAVYYCQQSNEDPYTFGQGTKLEIK
